The data set deals with the molecule itself. As to the kind of experiment: crystal structure; sitting-drop vapor diffusion at 20 °C, 8 mg/ml GFAT-1; 0.1 M Bis tris propane pH 8.5-9.0, 0.2-0.4 M potassium sodium tartrate, 20% (w/v) PEG3350; SEC buffer with Frc6P, 50 mM L-Arg and 50 mM L-Glu; two monomers in the asymmetric unit.

One may read the stoichiometry N as a count of units in the complex or per binding partner.

B1: human glutamine fructose-6-phosphate amidotransferase-1 (GFAT-1) isoform 2, full length, with internal His6-tag (enzyme, UniProt Q06210-2 1-681, looked up)
chain: MCGIFAYLNYHVPRTRREILETLIKGLQRLEYRGYDSAGVGFDGGNDKDWEANACKIQLIKKKGKVKALDEEVHKQQDMDLDIEFDVHLGIAHTRWATHGEPSPVNSHPQRSDKNNEFIVIHNGIITNYKDLKKFLESKGYDFESETDTETIAKLVKYMYDNRESQDTSFTTLVERVIQQLEGAFALVFKSVHFPGQAVGTRRGSPLLIGVRSEHKLSTDHIPILYRTGKDKKGSCNLSRVDSTTCLFPVEEKAVEYYFASDASAVIEHTNRVIFLEDDDVAAVVDGRLSIHRIKRTAGDHPGRAVQTLQMELQQIMKGNFSSFMQKEIFEQPESVVNTMRGRVNFDDYTVNLGGLKDHIKEIQRCRRLILIACGTSYHAGVATRQVLEELTELPVMVELASDFLDRNTPVFRDDVCFFLSQSGETADTLMGLRYCKERGALTVGITNTVGSSISRETDCGVHINAGPEIGVASTKAYTSQFVSLVMFALMMCDDRISMQERRKEIMLGLKRLPDLIKEVLSMDDEIQKLATELYHQKSVLIMGRGYHYATCLEGALKIKEITYMHSEGILAGELKHGPLALVDKLMPVIMIIMRDHTYAKCQNALQQVVARQGRPVVICDKEDTETIKNTKRTIKVPHSVDCLQGILSVIPLQLLAFHLAVLRGYDVDFPRNLAKSVTVE
modifications: phosphoserine at 243 (found in mass spectrometry and in the crystal structure)
notes: human GFAT-1 isoform 2 (glutamine fructose-6-phosphate amidotransferase-1, EC 2.6.1.16), full length; residue numbers run to 681 (C-loop 670-681); His6 inserted between Gly299 and Asp300; Initial methionine removed in the purified protein; also called GFAT-1 WT; wild type GFAT-1; source: Sf21 insect cells (MultiBac baculovirus), purified (Ni-NTA, SEC); not shown: His6, internal (after residue …)
With B1, the “stoichiometry N” value came out at 2.

B2: human GFAT-1 G451E (isoform 2, full length, with internal His6-tag) (enzyme, UniProt Q06210-2 1-681, looked up)
chain: MCGIFAYLNYHVPRTRREILETLIKGLQRLEYRGYDSAGVGFDGGNDKDWEANACKIQLIKKKGKVKALDEEVHKQQDMDLDIEFDVHLGIAHTRWATHGEPSPVNSHPQRSDKNNEFIVIHNGIITNYKDLKKFLESKGYDFESETDTETIAKLVKYMYDNRESQDTSFTTLVERVIQQLEGAFALVFKSVHFPGQAVGTRRGSPLLIGVRSEHKLSTDHIPILYRTGKDKKGSCNLSRVDSTTCLFPVEEKAVEYYFASDASAVIEHTNRVIFLEDDDVAAVVDGRLSIHRIKRTAGDHPGRAVQTLQMELQQIMKGNFSSFMQKEIFEQPESVVNTMRGRVNFDDYTVNLGGLKDHIKEIQRCRRLILIACGTSYHAGVATRQVLEELTELPVMVELASDFLDRNTPVFRDDVCFFLSQSGETADTLMGLRYCKERGALTVGITNTVESSISRETDCGVHINAGPEIGVASTKAYTSQFVSLVMFALMMCDDRISMQERRKEIMLGLKRLPDLIKEVLSMDDEIQKLATELYHQKSVLIMGRGYHYATCLEGALKIKEITYMHSEGILAGELKHGPLALVDKLMPVIMIIMRDHTYAKCQNALQQVVARQGRPVVICDKEDTETIKNTKRTIKVPHSVDCLQGILSVIPLQLLAFHLAVLRGYDVDFPRNLAKSVTVE
notes: human GFAT-1 isoform 2, full length, with G451E; His6 inserted between Gly299 and Asp300 (made from pFL-hGFAT1-His299); Same construct as m1 with the point mutation G451E; source: Sf21 insect cells (MultiBac baculovirus), purified (Ni-NTA, SEC)
Turning to B2, the binding result is given as “binds”.

(Values after article PMC7000685 (Nature Communications, 2020).)
